Data reported in paper PMC3182529.

Target: 14-3-3ζ (UniProt P63104)
Test: fluorescence polarisation

14-3-3ζ, sequence (P63104 whole entry): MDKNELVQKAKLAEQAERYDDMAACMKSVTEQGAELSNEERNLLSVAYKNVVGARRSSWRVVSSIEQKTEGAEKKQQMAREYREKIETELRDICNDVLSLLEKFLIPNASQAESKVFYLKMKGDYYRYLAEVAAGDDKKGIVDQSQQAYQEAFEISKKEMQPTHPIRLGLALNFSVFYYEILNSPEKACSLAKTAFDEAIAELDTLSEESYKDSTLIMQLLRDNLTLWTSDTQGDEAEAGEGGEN

Kd | Substance
34.9 µM | H3K27acS28ph (25–38) (from UniProt P68431 26-39) (peptide)
18.7 µM | H3S28ph (25–38) (from UniProt P68431 26-39) (peptide)
162 µM | H3S28phP30A (25–38) (from UniProt P68431 26-39) (peptide)
